T1: ParB CTD (Bacillus subtilis, UniProt P26497 217-282)
T1 sequence: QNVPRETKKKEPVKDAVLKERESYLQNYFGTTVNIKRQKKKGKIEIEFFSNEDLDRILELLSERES

B1: 10-bp hairpin DNA (structured_DNA)
DNA: GCGTACATCATTCCCTGATGTACGC
B2: BsParB(A232G), full length (natural protein)
chain: MAKGLGKGINALFNQVDLSEETVEEIKIADLRPNPYQPRKHFDDEALAELKESVLQHGILQPLIVRKSLKGYDIVAGERRFRAAKLAGLDTVPAIVRELSEALMREIALLENLQREDLSPLEEAQAYDSLLKHLDLTQEQLAKRLGKSRPHIANHLRLLTLPENIQQLIAEGTLSMGHGRTLLGLKNKNKLEPLVQKVIAEQLNVRQLEQLIQQLNQNVPRETKKKEPVKDGVLKERESYLQNYFGTTVNIKRQKKKGKIEIEFFSNEDLDRILELLSERES
B3: BsParB(K259A), full length (natural protein)
chain: MAKGLGKGINALFNQVDLSEETVEEIKIADLRPNPYQPRKHFDDEALAELKESVLQHGILQPLIVRKSLKGYDIVAGERRFRAAKLAGLDTVPAIVRELSEALMREIALLENLQREDLSPLEEAQAYDSLLKHLDLTQEQLAKRLGKSRPHIANHLRLLTLPENIQQLIAEGTLSMGHGRTLLGLKNKNKLEPLVQKVIAEQLNVRQLEQLIQQLNQNVPRETKKKEPVKDAVLKERESYLQNYFGTTVNIKRQKKKGAIEIEFFSNEDLDRILELLSERES
B4: BsParB(K252A-K259A) (natural protein)
chain: MAKGLGKGINALFNQVDLSEETVEEIKIADLRPNPYQPRKHFDDEALAELKESVLQHGILQPLIVRKSLKGYDIVAGERRFRAAKLAGLDTVPAIVRELSEALMREIALLENLQREDLSPLEEAQAYDSLLKHLDLTQEQLAKRLGKSRPHIANHLRLLTLPENIQQLIAEGTLSMGHGRTLLGLKNKNKLEPLVQKVIAEQLNVRQLEQLIQQLNQNVPRETKKKEPVKDAVLKERESYLQNYFGTTVNIARQKKKGAIEIEFFSNEDLDRILELLSERES
B5: BsParB(K252A-K255A-K259A) (natural protein)
chain: MAKGLGKGINALFNQVDLSEETVEEIKIADLRPNPYQPRKHFDDEALAELKESVLQHGILQPLIVRKSLKGYDIVAGERRFRAAKLAGLDTVPAIVRELSEALMREIALLENLQREDLSPLEEAQAYDSLLKHLDLTQEQLAKRLGKSRPHIANHLRLLTLPENIQQLIAEGTLSMGHGRTLLGLKNKNKLEPLVQKVIAEQLNVRQLEQLIQQLNQNVPRETKKKEPVKDAVLKERESYLQNYFGTTVNIARQAKKGAIEIEFFSNEDLDRILELLSERES
B6: BsParB(K257A), full length (natural protein)
chain: MAKGLGKGINALFNQVDLSEETVEEIKIADLRPNPYQPRKHFDDEALAELKESVLQHGILQPLIVRKSLKGYDIVAGERRFRAAKLAGLDTVPAIVRELSEALMREIALLENLQREDLSPLEEAQAYDSLLKHLDLTQEQLAKRLGKSRPHIANHLRLLTLPENIQQLIAEGTLSMGHGRTLLGLKNKNKLEPLVQKVIAEQLNVRQLEQLIQQLNQNVPRETKKKEPVKDAVLKERESYLQNYFGTTVNIKRQKKAGKIEIEFFSNEDLDRILELLSERES
B7: BsParB(K255A), full length (natural protein)
chain: MAKGLGKGINALFNQVDLSEETVEEIKIADLRPNPYQPRKHFDDEALAELKESVLQHGILQPLIVRKSLKGYDIVAGERRFRAAKLAGLDTVPAIVRELSEALMREIALLENLQREDLSPLEEAQAYDSLLKHLDLTQEQLAKRLGKSRPHIANHLRLLTLPENIQQLIAEGTLSMGHGRTLLGLKNKNKLEPLVQKVIAEQLNVRQLEQLIQQLNQNVPRETKKKEPVKDAVLKERESYLQNYFGTTVNIKRQAKKGKIEIEFFSNEDLDRILELLSERES
B8: BsParB(K256A), full length (natural protein)
chain: MAKGLGKGINALFNQVDLSEETVEEIKIADLRPNPYQPRKHFDDEALAELKESVLQHGILQPLIVRKSLKGYDIVAGERRFRAAKLAGLDTVPAIVRELSEALMREIALLENLQREDLSPLEEAQAYDSLLKHLDLTQEQLAKRLGKSRPHIANHLRLLTLPENIQQLIAEGTLSMGHGRTLLGLKNKNKLEPLVQKVIAEQLNVRQLEQLIQQLNQNVPRETKKKEPVKDAVLKERESYLQNYFGTTVNIKRQKAKGKIEIEFFSNEDLDRILELLSERES
B9: BsParB(K252A), full length (natural protein)
chain: MAKGLGKGINALFNQVDLSEETVEEIKIADLRPNPYQPRKHFDDEALAELKESVLQHGILQPLIVRKSLKGYDIVAGERRFRAAKLAGLDTVPAIVRELSEALMREIALLENLQREDLSPLEEAQAYDSLLKHLDLTQEQLAKRLGKSRPHIANHLRLLTLPENIQQLIAEGTLSMGHGRTLLGLKNKNKLEPLVQKVIAEQLNVRQLEQLIQQLNQNVPRETKKKEPVKDAVLKERESYLQNYFGTTVNIARQKKKGKIEIEFFSNEDLDRILELLSERES

The target of one data set is T1, ParB CTD. Nature of the data set: NMR.
Consider B1, for which the binding result was “binds”.

A further data set deals with the molecule itself. Nature of the data set: SEC-MALS.
As to B2, the “stoichiometry N” value amounted to 2.

Take B3: the “stoichiometry N” value came to 2.

Regarding B4, the binding result was “binds”.

Take B5: the binding result is “binds”.

As to B6, the “stoichiometry N” value is 2.

With B7, the “stoichiometry N” value came to 2.

On to B8, for which the “stoichiometry N” value is 2.

Take B9: the “stoichiometry N” value came out at 2.

The values are drawn from publication PMC12259117 (bioRxiv, 2025).
